Patent US20220175920A1
Values joined by “and” are separate entries in the source; they are usually repeats but may differ in a detail not shown here. Identical values can stand only once. Each block holds one substance with its values, some of them ahead of it.

Legend:
[1] = molecular target: human CD40 ectodomain human Fc fusion protein (human) (UniProt P25942); assay: competition flow cytometry: mouse mAb titrated into 2 ug/ml human CD40 ectodomain-human Fc, 1 h on ice, then added to human CD40L-transfected L cells; cell-bound CD40-Fc detected with anti-IgG-PE; blocked ligand: CD40L on L cells [left panel]
[2] = molecular target: human CD40 on cells (B cells, MDDCs, stably transfected CHO cells) (human) (UniProt P25942); assay: cell-based or functional assay
human CD40 on cells (B cells, MDDCs, stably transfected CHO cells) (human), sequence (P25942 21-277): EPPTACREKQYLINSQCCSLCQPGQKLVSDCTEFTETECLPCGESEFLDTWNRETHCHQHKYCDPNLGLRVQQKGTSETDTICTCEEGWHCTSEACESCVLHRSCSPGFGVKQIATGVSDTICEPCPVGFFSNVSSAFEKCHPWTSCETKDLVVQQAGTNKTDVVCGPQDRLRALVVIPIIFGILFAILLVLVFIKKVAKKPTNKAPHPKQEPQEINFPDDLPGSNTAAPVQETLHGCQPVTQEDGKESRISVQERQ

human CD40 ectodomain human Fc fusion protein (human), sequence (P25942 21-193): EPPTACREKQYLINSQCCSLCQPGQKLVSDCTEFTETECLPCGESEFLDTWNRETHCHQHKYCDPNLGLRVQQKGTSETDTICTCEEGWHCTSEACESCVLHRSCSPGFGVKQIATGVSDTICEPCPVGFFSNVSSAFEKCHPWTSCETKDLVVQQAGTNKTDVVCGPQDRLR

- IC50 (read off the curve) [1]: 0.1 µg/mL
Substance: 12E12 (antibody)

- EC50 (nM) B cell: 50% of maximum B cell proliferation (FIG. 10B) [2]: > 10 nM
- fold less active in inducing B cell proliferation than the 11B6 and 12B4-CD40L fusion proteins [2]: 10 fold
Substance: human IgG4 control mAb with CD40L fused to the L chain

- EC50 (nM) IL-12 p40, MDDC secretion [2]: > 1 nM and < 10 nM
- EC50 (nM) IL-15, MDDC secretion [2]: > 1 nM and < 10 nM
- EC50 (nM) TNFα, MDDC secretion [2]: > 1 nM and < 10 nM
- EC50/11B6-CD40L, IL-12 p40 [2]: 100
- EC50/11B6-CD40L, IL-15 [2]: 100
- EC50/11B6-CD40L, TNFα [2]: 100
Substance: MEGACD40L (Mega sCD40L) (ligand)
